Experimental data as given in EP1086224B1.

Experiments:
[1] = molecular target: cell-surface HLA-A2 on Hmy2.C1R-A2 target cells with HTLV-1 TAX 11-19 peptide (human; HTLV-1), A*02:0; test: cell-based or functional assay
[2] = molecular target: cell-surface HLA-A2 on Hmy2.C1R-A2 transfectants with HIV gag 77-85 peptide (human; HIV), A*02:0
[3] = molecular target: cell-surface HLA-A3 on Hmy2.C1R-A3 transfectants with pn2a.A3 peptide (human)
[4] = molecular target: cell-surface HLA-A3 on Hmy2.C1R-A3 transfectants with pn2a.A3 peptide (human); remark: listed apart in the source
[5] = molecular target: cell-surface HLA-A1 on Hmy2.C1R-A1 transfectants with ornithine decarboxylase 309-317 (OD 309) peptide (human); test: HLA stabilization assay, acid-stripped Hmy2.C1R-A1 cells with OD 309 peptide and BB7.5 mAb, flow cytometry
[6] = molecular target: cell-surface HLA-A1 on Hmy2.C1R-A1 transfectants with ornithine decarboxylase 309-317 (OD 309) peptide (human); test: competition with 2.5 µM myc-hβ2m on Hmy2.C1R-A1 cells with OD 309 peptide, 9E10 anti-myc, flow cytometry

wild-type human β2-microglobulin (hβ2m), recombinant (from UniProt P61769 21-119)
hβ2m concentration giving maximal lysis by the TAX-specific CTL clone [1]: 8 µM

hβ2m S55V (human β2-microglobulin with valine at position 55) (from UniProt P61769 21-119)
enhancement of target cell lysis, fold more effective at a molar level than wild-type hβ2m [1]: 4 fold | fold better inhibition of myc-hβ2m binding than wild-type hβ2m at a molar level [2]: 2.5 fold | fold better inhibition of myc-hβ2m binding than wild-type hβ2m at a molar level [3]: 2.5 fold | fold better stabilization than wild-type hβ2m at a molar level [4]: 3 fold | fold better stabilization than wild-type hβ2m at a molar level [5]: 2 fold | fold better inhibition of myc-hβ2m binding than wild-type hβ2m at a molar level [6]: 2.5 fold
